One may read the Kd as the free concentration of one partner at which half of the binding sites on the other are occupied at equilibrium, for simple one-to-one binding. The low end stands for tighter binding, the high end for weaker binding.

Kd data for one molecule are collected here from paper PMC6262872, “DARPins recognize mTFP1 as novel reagents for in vitro and in vivo protein manipulations” (Biology Open, 2018).

The target of this test is T1, monomeric teal fluorescent protein 1 (mTFP1), N-terminally hexa-His-SBP-tagged.
T1 construct: mTFP1, engineered monomeric teal fluorescent protein (Ai et al., 2006); PDB 2HQK is the cited mTFP1 structure; also called SBP-tagged mTFP1; source: E. coli BL21(DE3), purified (Ni-NTA)
The test can be described thus: fluorescence polarisation; fluorescence anisotropy; constant 15 nM mTFP1 titrated with a dilution series of DARPin; non-linear fit. The following applies: both partners purified. On the technique in general: Polarisation of emitted light reports the rotation of a fluorescent probe.

B1: DARPin 1238_G01 (N-terminal His8, C-terminal FLAG) (designed binder)
chain: GSDLGKKLLEAARAGQDDEVRILMANGADVNAEDWMGATPLHLAAQSGHLEIVEVLLKTGADVNAHDAFGWTPLHLAASQGHLEIVEVLLKAGADVNATDMVGRTPLHLAARRGHLEIVEVLLKHGADVNAQDKFGKTPFDLAIDNGNEDIAEVLQKAAKLN
modifications: N-terminal MRGS-His8 and C-terminal FLAG tags left out; the GP cloning residues of the crystal construct are also left out
For the molecule B1, the dissociation constant Kd is about 88 nM.
